The record followed here is IntAct's records for PubMed 27309818.

B1: Izumo sperm-egg fusion protein 1 (Homo sapiens), Q8IYV9-1 (parent)
chain: MGPHFTLLCAALAGCLLPAEGCVICDPSVVLALKSLEKDYLPGHLDAKHHKAMMERVENAVKDFQELSLNEDAYMGVVDEATLQKGSWSLLKDLKRITDSDVKGDLFVKELFWMLHLQKETFATYVARFQKEAYCPNKCGVMLQTLIWCKNCKKEVHACRKSYDCGERNVEVPQMEDMILDCELNWHQASEGLTDYSFYRVWGNNTETLVSKGKEATLTKPMVGPEDAGSYRCELGSVNSSPATIINFHVTVLPKMIKEEKPSPNIVTPGEATTESSISLQPLQPEKMLASRLLGLLICGSLALITGLTFAIFRRRKVIDFIKSSLFGLGSGAAEQTQVPKEKATDSRQQ
B2: Sperm-egg fusion protein Juno (Homo sapiens), A6ND01-1 (parent)
chain: MACWWPLLLELWTVMPTWAGDELLNICMNAKHHKRVPSPEDKLYEECIPWKDNACCTLTTSWEAHLDVSPLYNFSLFHCGLLMPGCRKHFIQAICFYECSPNLGPWIQPVGSLGWEVAPSGQGERVVNVPLCQEDCEEWWEDCRMSYTCKSNWRGGWDWSQGKNRCPKGAQCLPFSHYFPTPADLCEKTWSNSFKASPERRNSGRCLQKWFEPAQGNPNVAVARLFASSAPSWELSYTIMVCSLFLPFLS

One test covers variants of B1. To be noted: with IZUMO1R.
Turning to H157A, the “effect of a mutation on the interaction” value is given as “decreasing interaction strength”.

Consider E71K, for which the “effect of a mutation on the interaction” value was “decreasing interaction strength”.

As to E71A, the “effect of a mutation on the interaction” value is recorded as “decreasing interaction strength”.

In the case of R160A, the “effect of a mutation on the interaction” value is recorded as “decreasing interaction strength”.

For the variant R160E, the “effect of a mutation on the interaction” value is recorded as “decreasing interaction strength”.

In the case of W148A, the “effect of a mutation on the interaction” value is “disrupting interaction strength”.

Another test covers variants of B2. The note with it: with IZUMO1, Q8IYV9-1.
For E45K, the “effect of a mutation on the interaction” value is recorded as “decreasing interaction strength”.

Turning to E45A, the “effect of a mutation on the interaction” value was “decreasing interaction strength”.

Consider W62A, for which the “effect of a mutation on the interaction” value is reported as “decreasing interaction strength”.

On to L81A, for which the “effect of a mutation on the interaction” value is “disrupting interaction strength”.

Turning to K163A, the “effect of a mutation on the interaction” value is given as “decreasing interaction strength”.

Turning to K163E, the “effect of a mutation on the interaction” value is “decreasing interaction strength”.
